ChEMBL document CHEMBL4229398, “Activities of recombinant human bleomycin hydrolase on bleomycins and engineered analogues revealing new opportunities to overcome bleomycin-induced pulmonary toxicity” (Bioorg Med Chem Lett, 2018)

How the values were obtained:
Type in all cases: ADME
Bleomycin hydrolase [1] = biological target: T1, Bleomycin hydrolase (Homo sapiens, UniProt Q13867); assay: Substrate activity at recombinant human N-terminal His6-tagged BLMH expressed in Escherichia coli BL21(DE3) assessed as Kcat to Km ratio measured after 1 hr by HPLC-based Michaelis-Menten plot analysis relative to BLM B2
T1 sequence (Q13867 whole entry): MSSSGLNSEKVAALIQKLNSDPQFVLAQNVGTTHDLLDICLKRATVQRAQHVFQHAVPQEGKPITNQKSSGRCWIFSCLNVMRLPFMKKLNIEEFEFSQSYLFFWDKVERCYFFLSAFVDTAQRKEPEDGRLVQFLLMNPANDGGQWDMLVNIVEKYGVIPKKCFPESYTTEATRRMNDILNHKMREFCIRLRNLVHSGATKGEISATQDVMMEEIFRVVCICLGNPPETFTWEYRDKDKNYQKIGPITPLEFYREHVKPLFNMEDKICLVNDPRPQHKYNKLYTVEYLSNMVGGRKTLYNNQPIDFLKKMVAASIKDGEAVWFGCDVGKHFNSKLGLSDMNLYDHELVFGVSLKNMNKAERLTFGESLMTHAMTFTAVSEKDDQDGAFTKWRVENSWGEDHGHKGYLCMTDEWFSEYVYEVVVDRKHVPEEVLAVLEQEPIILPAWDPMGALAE

Bleomycin hydrolase [2] = biological target: T1, Bleomycin hydrolase; assay: (§1) Substrate activity at recombinant human BLMH expressed in baculovirus infected Sf9 insect cells assessed as Kcat to Km ratio
Bleomycin hydrolase [3] = biological target: T1, Bleomycin hydrolase; assay: (§2) Substrate activity at recombinant human N-terminal His6-tagged BLMH expressed in Escherichia coli BL21(DE3) measured after 1 hr by HPLC-based Michaelis-Menten plot analysis
Bleomycin hydrolase [4] = biological target: T1, Bleomycin hydrolase; assay: Substrate activity at recombinant human N-terminal His6-tagged BLMH expressed in Escherichia coli BL21(DE3) assessed as Kcat to Km ratio measured after 1 hr by HPLC-based Michaelis-Menten plot analysis
[5] = substrate: [H][C@]1(O[C@@H]2[C@H](O[C@@H](c3c[nH]cn3)[C@H](NC(=O)c3nc([C@H](CC(N)=O)NC[C@H](N)C(N)=O)nc(N)c3C)C(=O)N[C@H](C)[C@@H](O)[C@H](C)C(=O)N[C@H](C(=O)NCCc3nc(-c4nc(C(=O)NCCC(=N)N)cs4)cs3)[C@@H](C)O)O[C@@H](CO)[C@@H](O)[C@@H]2O)O[C@H](CO)[C@@H](O)[C@H](OC(N)=O)[C@@H]1O; assay: as §2
[6] = substrate: Cc1c(N)nc([C@H](CC(N)=O)NC[C@H](N)C(N)=O)nc1C(=O)N[C@H](C(=O)N[C@H](C)[C@@H](O)[C@H](C)C(=O)N[C@H](C(=O)NCCc1nc(-c2nc(C(=O)NCCCCNC(=N)N)cs2)cs1)[C@@H](C)O)[C@@H](O[C@@H]1O[C@@H](CO)[C@@H](O)[C@H](O)[C@@H]1O[C@H]1O[C@H](CO)[C@@H](O)[C@H](OC(N)=O)[C@@H]1O)c1c[nH]cn1; assay: as §2
[7] = substrate: [H][C@]1(O[C@@H]2[C@H](O[C@@H](c3c[nH]cn3)[C@H](NC(=O)c3nc([C@H](CC(N)=O)NC[C@H](N)C(N)=O)nc(N)c3C)C(=O)N[C@H](C)[C@@H](O)CC(=O)N[C@H](C(=O)NCCc3nc(-c4nc(C(=O)NCCCC(N)CC(=O)NCCCNCCCCN)cs4)cs3)[C@@H](C)O)O[C@@H](CO)[C@@H](O)[C@@H]2O)O[C@H](CO)[C@@H](O)[C@H](OC(N)=O)[C@@H]1O; assay: as §2
[8] = substrate: [H][C@]1(O[C@@H]2[C@H](O[C@@H](c3c[nH]cn3)[C@H](NC(=O)c3nc([C@H](CC(N)=O)NC[C@H](N)C(N)=O)nc(N)c3C)C(=O)N[C@H](C)[C@@H](O)[C@H](C)C(=O)N[C@H](C(=O)NCCc3nc(-c4nc(C(=O)NCCC[S+](C)C)cs4)cs3)[C@@H](C)O)O[C@@H](C)[C@@H](O)[C@@H]2O)O[C@H](CO)[C@@H](O)[C@H](OC(N)=O)[C@@H]1O; assay: as §2
[9] = substrate: [H][C@]1(O[C@@H]2[C@H](O[C@@H](c3c[nH]cn3)[C@H](NC(=O)c3nc([C@H](CC(N)=O)NC[C@H](N)C(N)=O)nc(N)c3C)C(=O)N[C@H](C)[C@@H](O)[C@H](C)C(=O)N[C@H](C(=O)NCCc3nc(-c4nc(C(=O)NCCC(=N)N)cs4)cs3)[C@@H](C)O)O[C@@H](C)[C@@H](O)[C@@H]2O)O[C@H](CO)[C@@H](O)[C@H](OC(N)=O)[C@@H]1O; assay: as §2
[10] = substrate: [H][C@]1(O[C@@H]2[C@H](O[C@@H](c3c[nH]cn3)[C@H](NC(=O)c3nc([C@H](CC(N)=O)NC[C@H](N)C(N)=O)nc(N)c3C)C(=O)N[C@H](C)[C@@H](O)CC(=O)N[C@H](C(=O)NCCc3nc(-c4nc(C(=O)NCCCC(N)CC(=O)NCCCNCCCCN)cs4)cs3)[C@@H](C)O)O[C@@H](C)[C@@H](O)[C@@H]2O)O[C@H](CO)[C@@H](O)[C@H](OC(N)=O)[C@@H]1O; assay: as §2
[11] = substrate: Cc1c(N)nc([C@H](CC(N)=O)NC[C@H](N)C(N)=O)nc1C(=O)N[C@H](C(=O)N[C@H](C)[C@@H](O)[C@H](C)C(=O)N[C@H](C(=O)NCCc1nc(-c2nc(C(=O)NCCCCNC(=N)N)cs2)cs1)[C@@H](C)O)[C@@H](O[C@@H]1O[C@@H](CO)[C@@H](O)[C@H](O)[C@@H]1O[C@H]1O[C@H](CO)[C@@H](O)[C@H](OC(N)=O)[C@@H]1O)c1c[nH]cn1; assay: as §1

Molecule: Cc1c(N)nc([C@H](CC(N)=O)NC[C@H](N)C(N)=O)nc1C(=O)N[C@H](C(=O)N[C@H](C)[C@@H](O)[C@H](C)C(=O)N[C@H](C(=O)NCCc1nc(-c2nc(C(=O)NCCC[S+](C)C)cs2)cs1)[C@@H](C)O)[C@@H](O[C@@H]1O[C@@H](C)[C@@H](O)[C@H](O)[C@@H]1O[C@H]1O[C@H](CO)[C@@H](O)[C@H](OC(N)=O)[C@@H]1O)c1c[nH]cn1
- fold change (FC) (Bleomycin hydrolase [1]): 0.11

Molecule: Cc1c(N)nc([C@H](CC(N)=O)NC[C@H](N)C(N)=O)nc1C(=O)N[C@H](C(=O)N[C@H](C)[C@@H](O)[C@H](C)C(=O)N[C@H](C(=O)NCCc1nc(-c2nc(C(=O)NCCC(=N)N)cs2)cs1)[C@@H](C)O)[C@@H](O[C@@H]1O[C@@H](C)[C@@H](O)[C@H](O)[C@@H]1O[C@H]1O[C@H](CO)[C@@H](O)[C@H](OC(N)=O)[C@@H]1O)c1c[nH]cn1
- fold change (FC) (Bleomycin hydrolase [1]): 0.28

Molecule: BLEOMYCIN
- fold change (FC) (Bleomycin hydrolase [1]): 0.12
- Kcat/Km (Bleomycin hydrolase [2]): 5000 M⁻¹ s⁻¹
- Kcat (Bleomycin hydrolase [3]): 4 s⁻¹
- Km (Bleomycin hydrolase [3]): 592 µM
- Kcat/Km (Bleomycin hydrolase [4]): 6.7 ×10⁻³ /microM/s

Molecule: Cc1c(N)nc([C@H](CC(N)=O)NC[C@H](N)C(N)=O)nc1C(=O)N[C@H](C(=O)N[C@H](C)[C@@H](O)[C@H](C)C(=O)N[C@H](C(=O)NCCc1nc(-c2nc(C(=O)NCCC(=N)N)cs2)cs1)[C@@H](C)O)[C@@H](O[C@@H]1O[C@@H](CO)[C@@H](O)[C@H](O)[C@@H]1O[C@H]1O[C@H](CO)[C@@H](O)[C@H](OC(N)=O)[C@@H]1O)c1c[nH]cn1
- fold change (FC) (Bleomycin hydrolase [1]): 0.19

Molecule: Cc1c(N)nc([C@H](CC(N)=O)NC[C@H](N)C(N)=O)nc1C(=O)N[C@H](C(=O)N[C@H](C)[C@@H](O)CC(=O)N[C@H](C(=O)NCCc1nc(-c2nc(C(=O)NCCCC(N)CC(=O)NCCCNCCCCN)cs2)cs1)[C@@H](C)O)[C@@H](O[C@@H]1O[C@@H](CO)[C@@H](O)[C@H](O)[C@@H]1O[C@H]1O[C@H](CO)[C@@H](O)[C@H](OC(N)=O)[C@@H]1O)c1c[nH]cn1 (stereo partly drawn)
- fold change (FC) (Bleomycin hydrolase [1]): 0.06

Molecule: Cc1c(N)nc([C@H](CC(N)=O)NC[C@H](N)C(N)=O)nc1C(=O)N[C@H](C(=O)N[C@H](C)[C@@H](O)CC(=O)N[C@H](C(=O)NCCc1nc(-c2nc(C(=O)NCCCC(N)CC(=O)NCCCNCCCCN)cs2)cs1)[C@@H](C)O)[C@@H](O[C@@H]1O[C@@H](C)[C@@H](O)[C@H](O)[C@@H]1O[C@H]1O[C@H](CO)[C@@H](O)[C@H](OC(N)=O)[C@@H]1O)c1c[nH]cn1 (stereo partly drawn)
- fold change (FC) (Bleomycin hydrolase [1]): 0.06

B1: Bleomycin hydrolase (Homo sapiens) (protein)
chain: MSSSGLNSEKVAALIQKLNSDPQFVLAQNVGTTHDLLDICLKRATVQRAQHVFQHAVPQEGKPITNQKSSGRCWIFSCLNVMRLPFMKKLNIEEFEFSQSYLFFWDKVERCYFFLSAFVDTAQRKEPEDGRLVQFLLMNPANDGGQWDMLVNIVEKYGVIPKKCFPESYTTEATRRMNDILNHKMREFCIRLRNLVHSGATKGEISATQDVMMEEIFRVVCICLGNPPETFTWEYRDKDKNYQKIGPITPLEFYREHVKPLFNMEDKICLVNDPRPQHKYNKLYTVEYLSNMVGGRKTLYNNQPIDFLKKMVAASIKDGEAVWFGCDVGKHFNSKLGLSDMNLYDHELVFGVSLKNMNKAERLTFGESLMTHAMTFTAVSEKDDQDGAFTKWRVENSWGEDHGHKGYLCMTDEWFSEYVYEVVVDRKHVPEEVLAVLEQEPIILPAWDPMGALAE
- Km [5]: 854 µM
- kcat [5]: 9.8 s⁻¹
- kcat/Km [5]: 11000 M⁻¹ s⁻¹
- Km [6]: 190 µM
- kcat [6]: 11 s⁻¹
- Km [7]: 743 µM
- kcat [7]: 2.4 s⁻¹
- kcat/Km [7]: 3200 M⁻¹ s⁻¹
- Km [8]: 805 µM
- kcat [8]: 4.9 s⁻¹
- kcat/Km [8]: 6100 M⁻¹ s⁻¹
- Km [9]: 942 µM
- kcat [9]: 15 s⁻¹
- kcat/Km [9]: 16000 M⁻¹ s⁻¹
- Km [10]: 720 µM
- kcat [10]: 2.5 s⁻¹
- kcat/Km [10]: 3500 M⁻¹ s⁻¹
- kcat/Km [11]: 12000 M⁻¹ s⁻¹
